In patent US20240277831A1:

What was measured:
[1] = biological target: RBD-8GS-I53-50A trimeric component (SARS-CoV-2)
[2] = biological target: Monomeric SARS-CoV-2 RBD (SARS-CoV-2) (UniProt P0DTC2)
[3] = biological target: RBD-16GS-I53-50A trimeric component (SARS-CoV-2)
[4] = biological target: RBD-12GS-I53-50A trimeric component (SARS-CoV-2)

Substance: CR3022 Fab
- Kd [1]: 0.057 µM
- koff [1]: 0.01 s⁻¹
- kon [1]: 200000 M⁻¹ s⁻¹
- Kd [2]: 0.045 µM
- koff [2]: 0.009 s⁻¹
- kon [2]: 200000 M⁻¹ s⁻¹
- Kd [3]: 0.056 µM
- koff [3]: 0.01 s⁻¹
- kon [3]: 200000 M⁻¹ s⁻¹
- Kd [4]: 0.042 µM
- koff [4]: 0.009 s⁻¹
- kon [4]: 200000 M⁻¹ s⁻¹
